Data taken from the RNAGym collection of RNA variant scans (doi:10.1093/molbev/msab373).

B1: Azoarcus group I ribozyme (parent)
chain: GUGCCUUGCGCCGGGAAACCACGCAAGGGAUGGUGUCAAAUUCGGCGAAACCUAAGCGCCCGCCCGGGCGUAUGGCAACGCCGAGCCAAGCUUCGGCGCCUGCGCCGAUGAAGGUGUAGAGACUAGACGGCACCCACCUAAGGCAAACGCUAUGGUGAAGGCAUAGUCCAGGGAGUGGCGAAAGUCACACAAACCGG

Variants of: B1
Test: reverse-splicing fitness (ratio to wild type); higher = more active; in vitro selection; Mg2+ level not given
Procedure, shortened: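 An in vitro group I ribozyme library with randomized positions was T7-transcribed and gel-purified. In triplicate, 10 pmol RNA in EPPS pH 7.5 was reacted with 50 pmoles of a 30-nt RNA substrate for 1 h at 37 °C across several added MgCl2 levels (1–48 mM), then stopped with EDTA. Products were reverse transcribed from a substrate-complementary primer, PCR-amplified and sequenced (HiSeq 4000). Fitness is a variant's read proportion after selection over that before, normalised to wild type.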

Question: Which reverse-splicing fitness does the source give for GUGCCUUGCGCCGGGAAACCACGCAAGGGAUGGUGUCAAAUUCGGCGAAACCUAAGCGCCCGCCCGGGCGUAUGGCAACGCGGAGCCAAGCUUCGGCGCCUGCGCCGAUGGAGGUGUAGAGACUAGACGGCACCCACCUAAGGCAAACGAUAUGGUGAAGGCAUAGUCAAGGGAGGGGCGAAAGUCACACAAACCGG [C82G A111G C150A C169A U176G] here?
Answer: The reverse-splicing fitness was 0.00701.

Question: Which reverse-splicing fitness does the source give for GUGCCUUGCGCCGGGAAACCACGCAAGGGAUGGUGUCAAAUUCGGCGAAACCUAAGCGCCCGCCCGGGCGUAUGGCAACGCGGAGCCAAGCUUCGGCGCCUGCGCCGAUGGAGGUGUAGAGACUAGACGGCACCCACCUAAGGCAAACGAUAUGGUGAAGGCAUAGUCAAGGGAGCGGCGAAAGUCACACAAACCGG [C82G A111G C150A C169A U176C] here?
Answer: The reverse-splicing fitness was 0.0224.

Question: Which reverse-splicing fitness does the source give for GUGCCUUGCGCCGGGAAACCACGCAAGGGAUGGUGUCAAAUUCGGCGAAACCUAAGCGCCCGCCCGGGCGUAUGGCAACGCGGAGCCAAGCUUCGGCGCCUGCGCCGAUGGAGGUGUAGAGACUAGACGGCACCCACCUAAGGCAAACGGUAUGGUGAAGGCAUAGUCCAGGGAGGGGCGAAAGUCACACAAACCGG [C82G A111G C150G U176G] here?
Answer: Its reverse-splicing fitness is 0.00548.

Question: For GUGCCUUGCGCCGGGAAACCACGCAAGGGAUGGUGUCAAAUUCGGCGAAACCUAAGCGCCCGCCCGGGCGUAUGGCAACGCGGAGCCAAGCUUCGGCGCCUGCGCCGAUGGAGGUGUAGAGACUAGACGGCACCCACCUAAGGCAAACGGUAUGGUGAAGGCAUAGUCCAGGGAGAGGCGAAAGUCACACAAACCGG [C82G A111G C150G U176A], which reverse-splicing fitness is on record?
Answer: The reverse-splicing fitness was 0.0136.

Question: Which reverse-splicing fitness does the source give for GUGCCUUGCGCCGGGAAACCACGCAAGGGAUGGUGUCAAAUUCGGCGAAACCUAAGCGCCCGCCCGGGCGUAUGGCAACGCGGAGCCAAGCUUCGGCGCCUGCGCCGAUGGAGGUGUAGAGACUAGACGGCACCCACCUAAGGCAAACGGUAUGGUGAAGGCAUAGUCCAGGGAGCGGCGAAAGUCACACAAACCGG [C82G A111G C150G U176C] here?
Answer: Its reverse-splicing fitness is 0.0225.

Question: Which reverse-splicing fitness does the source give for GUGCCUUGCGCCGGGAAACCACGCAAGGGAUGGUGUCAAAUUCGGCGAAACCUAAGCGCCCGCCCGGGCGUAUGGCAACGCGGAGCCAAGCUUCGGCGCCUGCGCCGAUGGAGGUGUAGAGACUAGACGGCACCCACCUAAGGCAAACGGUAUGGUGAAGGCAUAGUCAAGGGAGCGGCGAAAGUCACACAAACCGG [C82G A111G C150G C169A U176C] here?
Answer: Its reverse-splicing fitness is 0.0166.

Question: Which reverse-splicing fitness does the source give for GUGCCUUGCGCCGGGAAACCACGCAAGGGAUGGUGUCAAAUUCGGCGAAACCUAAGCGCCCGCCCGGGCGUAUGGCAACGCGGAGCCAAGCUUCGGCGCCUGCGCCGAUGGAGGUGUAGAGACUAGACGGCACCCACCUAAGGCAAACGGUAUGGUGAAGGCAUAGUCAAGGGAGGGGCGAAAGUCACACAAACCGG [C82G A111G C150G C169A U176G] here?
Answer: Its reverse-splicing fitness is 0.00786.

Question: With GUGCCUUGCGCCGGGAAACCACGCAAGGGAUGGUGUCAAAUUCGGCGAAACCUAAGCGCCCGCCCGGGCGUAUGGCAACGCGGAGCCAAGCUUCGGCGCCUGCGCCGAUGGAGGUGUAGAGACUAGACGGCACCCACCUAAGGCAAACGGUAUGGUGAAGGCAUAGUCAAGGGAGAGGCGAAAGUCACACAAACCGG [C82G A111G C150G C169A U176A] as the variant, how does the reverse-splicing fitness read?
Answer: Its reverse-splicing fitness is 0.014.

Question: With GUGCCUUGCGCCGGGAAACCACGCAAGGGAUGGUGUCAAAUUCGGCGAAACCUAAGCGCCCGCCCGGGCGUAUGGCAACGCGGAGCCAAGCUUCGGCGCCUGCGCCGAUGGAGGUGUAGAGACUAGACGGCACCCACCUAAGGCAAACGGUAUGGUGAAGGCAUAGUCAAGGGAGUGGCGAAAGUCACACAAACCGG [C82G A111G C150G C169A] as the variant, how does the reverse-splicing fitness read?
Answer: The reverse-splicing fitness was 0.00975.

Question: For GUGCCUUGCGCCGGGAAACCACGCAAGGGAUGGUGUCAAAUUCGGCGAAACCUAAGCGCCCGCCCGGGCGUAUGGCAACGCGGAGCCAAGCUUCGGCGCCUGCGCCGAUGGAGGUGUAGAGACUAGACGGCACCCACCUAAGGCAAACGGUAUGGUGAAGGCAUAGUCUAGGGAGUGGCGAAAGUCACACAAACCGG [C82G A111G C150G C169U], which reverse-splicing fitness is on record?
Answer: The reverse-splicing fitness was 0.0107.

Question: Which reverse-splicing fitness does the source give for GUGCCUUGCGCCGGGAAACCACGCAAGGGAUGGUGUCAAAUUCGGCGAAACCUAAGCGCCCGCCCGGGCGUAUGGCAACGCGGAGCCAAGCUUCGGCGCCUGCGCCGAUGGAGGUGUAGAGACUAGACGGCACCCACCUAAGGCAAACGGUAUGGUGAAGGCAUAGUCGAGGGAGUGGCGAAAGUCACACAAACCGG [C82G A111G C150G C169G] here?
Answer: The reverse-splicing fitness was 0.00817.

Question: For GUGCCUUGCGCCGGGAAACCACGCAAGGGAUGGUGUCAAAUUCGGCGAAACCUAAGCGCCCGCCCGGGCGUAUGGCAACGCGGAGCCAAGCUUCGGCGCCUGCGCCGAUGGAGGUGUAGAGACUAGACGGCACCCACCUAAGGCAAACGGUAUGGUGAAGGCAUAGUCUAGGGAGAGGCGAAAGUCACACAAACCGG [C82G A111G C150G C169U U176A], which reverse-splicing fitness is on record?
Answer: The reverse-splicing fitness was 0.00973.

Question: For GUGCCUUGCGCCGGGAAACCACGCAAGGGAUGGUGUCAAAUUCGGCGAAACCUAAGCGCCCGCCCGGGCGUAUGGCAACGCGGAGCCAAGCUUCGGCGCCUGCGCCGAUGGAGGUGUAGAGACUAGACGGCACCCACCUAAGGCAAACGGUAUGGUGAAGGCAUAGUCUAGGGAGGGGCGAAAGUCACACAAACCGG [C82G A111G C150G C169U U176G], which reverse-splicing fitness is on record?
Answer: The reverse-splicing fitness was 0.008.

Question: For GUGCCUUGCGCCGGGAAACCACGCAAGGGAUGGUGUCAAAUUCGGCGAAACCUAAGCGCCCGCCCGGGCGUAUGGCAACGCGGAGCCAAGCUUCGGCGCCUGCGCCGAUGGAGGUGUAGAGACUAGACGGCACCCACCUAAGGCAAACGGUAUGGUGAAGGCAUAGUCUAGGGAGCGGCGAAAGUCACACAAACCGG [C82G A111G C150G C169U U176C], which reverse-splicing fitness is on record?
Answer: The reverse-splicing fitness was 0.0165.

Question: Which reverse-splicing fitness does the source give for GUGCCUUGCGCCGGGAAACCACGCAAGGGAUGGUGUCAAAUUCGGCGAAACCUAAGCGCCCGCCCGGGCGUAUGGCAACGCGGAGCCAAGCUUCGGCGCCUGCGCCGAUGGAGGUGUAGAGACUAGACGGCACCCACCUAAGGCAAACGAUAUGGUGAAGGCAUAGUCCAGGGAGGGGCGAAAGUCACACAAACCGG [C82G A111G C150A U176G] here?
Answer: The reverse-splicing fitness was 0.0174.
